From patent US20230218721A1 (ZHEJIANG DOER BIOLOGICS, published 2023)
Starred links: 1 amine or outer side, 2 acyl side, 3 side chain; linkers in the order of their positions; H or OH if unused. Groups on a side chain read outwards from the residue. No end group written: not given here. *: point of attachment. C20 diacid = O=C(O)CCCCCCCCCCCCCCCCCCC(=O)*; C18 diacid = O=C(O)CCCCCCCCCCCCCCCCC(=O)*; γGlu = O=C(O)[C@H](CCC(=O)[*:2])N[*:1]; Palmitoyl = CCCCCCCCCCCCCCCC(=O)*; AEEA = NCCOCCOCC(=O)O

What was measured:
Assay in all cases: cell-based or functional assay
[1] = target: T1, glucose-dependent insulinotropic polypeptide receptor (GIPR) (human (printed as 'Humanized'), UniProt P48546 22-466)
T1 sequence (looked up): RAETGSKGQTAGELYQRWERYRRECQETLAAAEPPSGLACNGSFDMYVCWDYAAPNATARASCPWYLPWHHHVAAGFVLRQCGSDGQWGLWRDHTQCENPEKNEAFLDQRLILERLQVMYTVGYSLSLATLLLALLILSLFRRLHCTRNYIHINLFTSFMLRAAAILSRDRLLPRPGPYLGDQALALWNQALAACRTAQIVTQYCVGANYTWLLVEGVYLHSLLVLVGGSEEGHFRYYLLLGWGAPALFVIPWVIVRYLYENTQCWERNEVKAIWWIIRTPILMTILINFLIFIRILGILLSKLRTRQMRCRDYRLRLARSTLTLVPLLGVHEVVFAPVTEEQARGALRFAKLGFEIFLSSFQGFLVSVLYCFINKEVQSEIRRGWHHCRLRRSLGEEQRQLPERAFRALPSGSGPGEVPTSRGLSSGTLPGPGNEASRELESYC

[2] = target: human glucagon-like peptide-1 receptor (GLP-1R) (human (printed as 'Humanized'), UniProt P43220 24-463)
glucagon receptor (GCGR) = glucagon receptor (GCGR) (human (printed as 'Humanized'), UniProt P47871 26-477)
Chain of glucagon receptor (GCGR) (P47871 26-477): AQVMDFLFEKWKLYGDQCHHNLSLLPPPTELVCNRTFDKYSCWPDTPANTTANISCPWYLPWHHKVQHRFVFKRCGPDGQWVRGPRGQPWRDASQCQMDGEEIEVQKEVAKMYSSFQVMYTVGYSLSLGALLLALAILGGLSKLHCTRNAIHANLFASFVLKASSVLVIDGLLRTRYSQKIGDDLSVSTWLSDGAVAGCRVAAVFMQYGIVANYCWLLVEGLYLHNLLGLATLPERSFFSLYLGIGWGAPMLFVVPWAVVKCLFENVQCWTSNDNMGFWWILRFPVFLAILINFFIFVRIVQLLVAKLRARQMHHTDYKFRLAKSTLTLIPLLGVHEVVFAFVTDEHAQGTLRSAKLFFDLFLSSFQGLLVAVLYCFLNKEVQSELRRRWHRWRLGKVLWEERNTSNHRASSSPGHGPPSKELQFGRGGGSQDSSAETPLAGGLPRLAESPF

B1: glucagon derivative P5YELAN (peptide)
peptide: YSEGTFTSDK([AEEA-AEEA-γGlu-C18 diacid])SKYLDSQAAQDFVQWLLAGGPSSGAPPPS-NH2
modifications: N-terminus assumed
SMILES: CC(C)C[C@H](NC(=O)[C@H](CC(C)C)NC(=O)[C@H](Cc1c[nH]c2ccccc12)NC(=O)[C@H](CCC(N)=O)NC(=O)[C@@H](NC(=O)[C@H](Cc1ccccc1)NC(=O)[C@H](CC(=O)O)NC(=O)[C@H](CCC(N)=O)NC(=O)[C@H](C)NC(=O)[C@H](C)NC(=O)[C@H](CCC(N)=O)NC(=O)[C@H](CO)NC(=O)[C@H](CC(=O)O)NC(=O)[C@H](CC(C)C)NC(=O)[C@H](Cc1ccc(O)cc1)NC(=O)[C@H](CCCCN)NC(=O)[C@H](CO)NC(=O)[C@H](CCCCNC(=O)COCCOCCNC(=O)COCCOCCNC(=O)CC[C@H](NC(=O)CCCCCCCCCCCCCCCCC(=O)O)C(=O)O)NC(=O)[C@H](CC(=O)O)NC(=O)[C@H](CO)NC(=O)[C@@H](NC(=O)[C@H](Cc1ccccc1)NC(=O)[C@@H](NC(=O)CNC(=O)[C@H](CCC(=O)O)NC(=O)[C@H](CO)NC(=O)[C@@H](N)Cc1ccc(O)cc1)[C@@H](C)O)[C@@H](C)O)C(C)C)C(=O)N[C@@H](C)C(=O)NCC(=O)NCC(=O)N1CCC[C@H]1C(=O)N[C@@H](CO)C(=O)N[C@@H](CO)C(=O)NCC(=O)N[C@@H](C)C(=O)N1CCC[C@H]1C(=O)N1CCC[C@H]1C(=O)N1CCC[C@H]1C(=O)N[C@@H](CO)C(N)=O
GIPR agonist activity (EC50, nM) [1]: 1.56 nM
GLP-1R agonist activity (EC50, nM) [2]: 0.81 nM
GCGR agonist activity (EC50, nM) (glucagon receptor (GCGR)): 5.87 nM

B2: glucagon derivative P9YELAN (peptide)
peptide: YSEGTFTSDK([AEEA-AEEA-γGlu-C20 diacid])SKYLDSQAAQDFVQWLLAGGPSSGAPPPS-NH2
modifications: N-terminus assumed
SMILES: CC(C)C[C@H](NC(=O)[C@H](CC(C)C)NC(=O)[C@H](Cc1c[nH]c2ccccc12)NC(=O)[C@H](CCC(N)=O)NC(=O)[C@@H](NC(=O)[C@H](Cc1ccccc1)NC(=O)[C@H](CC(=O)O)NC(=O)[C@H](CCC(N)=O)NC(=O)[C@H](C)NC(=O)[C@H](C)NC(=O)[C@H](CCC(N)=O)NC(=O)[C@H](CO)NC(=O)[C@H](CC(=O)O)NC(=O)[C@H](CC(C)C)NC(=O)[C@H](Cc1ccc(O)cc1)NC(=O)[C@H](CCCCN)NC(=O)[C@H](CO)NC(=O)[C@H](CCCCNC(=O)COCCOCCNC(=O)COCCOCCNC(=O)CC[C@H](NC(=O)CCCCCCCCCCCCCCCCCCC(=O)O)C(=O)O)NC(=O)[C@H](CC(=O)O)NC(=O)[C@H](CO)NC(=O)[C@@H](NC(=O)[C@H](Cc1ccccc1)NC(=O)[C@@H](NC(=O)CNC(=O)[C@H](CCC(=O)O)NC(=O)[C@H](CO)NC(=O)[C@@H](N)Cc1ccc(O)cc1)[C@@H](C)O)[C@@H](C)O)C(C)C)C(=O)N[C@@H](C)C(=O)NCC(=O)NCC(=O)N1CCC[C@H]1C(=O)N[C@@H](CO)C(=O)N[C@@H](CO)C(=O)NCC(=O)N[C@@H](C)C(=O)N1CCC[C@H]1C(=O)N1CCC[C@H]1C(=O)N1CCC[C@H]1C(=O)N[C@@H](CO)C(N)=O
GIPR agonist activity (EC50, nM) [1]: 0.19 nM
GLP-1R agonist activity (EC50, nM) [2]: 4.25 nM
GCGR agonist activity (EC50, nM) (glucagon receptor (GCGR)): 4.77 nM

B3: incretin analogue P3YELAN (peptide)
peptide: YSEGTFTSDK([γGlu-Palmitoyl])SKYLDSQAAQDFVQWLLAGGPSSGAPPPS-NH2
modifications: N-terminus assumed
SMILES: CCCCCCCCCCCCCCCC(=O)N[C@@H](CCC(=O)NCCCC[C@H](NC(=O)[C@H](CC(=O)O)NC(=O)[C@H](CO)NC(=O)[C@@H](NC(=O)[C@H](Cc1ccccc1)NC(=O)[C@@H](NC(=O)CNC(=O)[C@H](CCC(=O)O)NC(=O)[C@H](CO)NC(=O)[C@@H](N)Cc1ccc(O)cc1)[C@@H](C)O)[C@@H](C)O)C(=O)N[C@@H](CO)C(=O)N[C@@H](CCCCN)C(=O)N[C@@H](Cc1ccc(O)cc1)C(=O)N[C@@H](CC(C)C)C(=O)N[C@@H](CC(=O)O)C(=O)N[C@@H](CO)C(=O)N[C@@H](CCC(N)=O)C(=O)N[C@@H](C)C(=O)N[C@@H](C)C(=O)N[C@@H](CCC(N)=O)C(=O)N[C@@H](CC(=O)O)C(=O)N[C@@H](Cc1ccccc1)C(=O)N[C@H](C(=O)N[C@@H](CCC(N)=O)C(=O)N[C@@H](Cc1c[nH]c2ccccc12)C(=O)N[C@@H](CC(C)C)C(=O)N[C@@H](CC(C)C)C(=O)N[C@@H](C)C(=O)NCC(=O)NCC(=O)N1CCC[C@H]1C(=O)N[C@@H](CO)C(=O)N[C@@H](CO)C(=O)NCC(=O)N[C@@H](C)C(=O)N1CCC[C@H]1C(=O)N1CCC[C@H]1C(=O)N1CCC[C@H]1C(=O)N[C@@H](CO)C(N)=O)C(C)C)C(=O)O
GIPR agonist activity (EC50, nM) [1]: 0.004 nM
GLP-1R agonist activity (EC50, nM) [2]: 0.11 nM
GCGR agonist activity (EC50, nM) (glucagon receptor (GCGR)): 4.57 nM
